The supplement of paper PMC9112550, “Optimization of the antimicrobial peptide Bac7 by deep mutational scanning” (BMC Biology, 2022)

System: Escherichia coli TOP10
Experiment: shrunken log2 fold change of peptide-encoding DNA abundance (4.5 h post-induction vs induction); higher = less antimicrobial activity (less host growth inhibition)
Settings: time post-induction: 4.5 h; library: site-saturation at positions 5, 18, 19, 20
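Also: peptides expressed intracellularly from a pBAD plasmid library in pooled LB shake-flask culture, induced with 0.3% L-arabinose, DNA abundance read by NGS, three biological replicates, DESeq2 with apeglm shrinkage.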

Sequence: RRIRARPPRLPRPRPRPHLKPRP
- shrunken log2 fold change: 0.01

Sequence: RRIRARPPRLPRPRPRPHLQPRP
- shrunken log2 fold change: 0.439

Sequence: RRIRARPPRLPRPRPRPHPCPRP
- shrunken log2 fold change: 0.206

Sequence: RRIRARPPRLPRPRPRPHPTPRP
- shrunken log2 fold change: 0.648

Sequence: RRIRARPPRLPRPRPRPHQVPRP
- shrunken log2 fold change: -0.17

Sequence: RRIRARPPRLPRPRPRPHRSPRP
- shrunken log2 fold change: -0.0655

Sequence: RRIRARPPRLPRPRPRPHRTPRP
- shrunken log2 fold change: -0.115

Sequence: RRIRARPPRLPRPRPRPHTHPRP
- shrunken log2 fold change: -0.175

Sequence: RRIRARPPRLPRPRPRPHTTPRP
- shrunken log2 fold change: -0.481

Sequence: RRIRARPPRLPRPRPRPHVGPRP
- shrunken log2 fold change: 0.34

Sequence: RRIRARPPRLPRPRPRPHWKPRP
- shrunken log2 fold change: -0.00664

Sequence: RRIRARPPRLPRPRPRPHYRPRP
- shrunken log2 fold change: 0.0684

Sequence: RRIRARPPRLPRPRPRPIEFPRP
- shrunken log2 fold change: -0.0488

Sequence: RRIRARPPRLPRPRPRPIEKPRP
- shrunken log2 fold change: 0.15

Sequence: RRIRARPPRLPRPRPRPIFMPRP
- shrunken log2 fold change: 0.104

Sequence: RRIRARPPRLPRPRPRPIILPRP
- shrunken log2 fold change: -0.262

Sequence: RRIRARPPRLPRPRPRPIIRPRP
- shrunken log2 fold change: -0.357

Sequence: RRIRARPPRLPRPRPRPIISPRP
- shrunken log2 fold change: -0.129

Sequence: RRIRARPPRLPRPRPRPIKNPRP
- shrunken log2 fold change: 0.00937

Sequence: RRIRARPPRLPRPRPRPIMAPRP
- shrunken log2 fold change: 0.0923

Sequence: RRIRARPPRLPRPRPRPIMIPRP
- shrunken log2 fold change: -0.261

Sequence: RRIRARPPRLPRPRPRPIPYPRP
- shrunken log2 fold change: -0.0777

Sequence: RRIRARPPRLPRPRPRPIRKPRP
- shrunken log2 fold change: 0.0897

Sequence: RRIRARPPRLPRPRPRPIRVPRP
- shrunken log2 fold change: 0.125

Sequence: RRIRARPPRLPRPRPRPITSPRP
- shrunken log2 fold change: 0.157

Sequence: RRIRARPPRLPRPRPRPIVPPRP
- shrunken log2 fold change: 0.0453

Sequence: RRIRARPPRLPRPRPRPIVVPRP
- shrunken log2 fold change: -0.14

Sequence: RRIRARPPRLPRPRPRPIWKPRP
- shrunken log2 fold change: -0.0642

Sequence: RRIRARPPRLPRPRPRPIWRPRP
- shrunken log2 fold change: 0.426

Sequence: RRIRARPPRLPRPRPRPIYDPRP
- shrunken log2 fold change: -0.138

Sequence: RRIRARPPRLPRPRPRPKAAPRP
- shrunken log2 fold change: 0.878

Sequence: RRIRARPPRLPRPRPRPKAGPRP
- shrunken log2 fold change: 0.213

Sequence: RRIRARPPRLPRPRPRPKECPRP
- shrunken log2 fold change: 0.0495

Sequence: RRIRARPPRLPRPRPRPKELPRP
- shrunken log2 fold change: 0.404

Sequence: RRIRARPPRLPRPRPRPKENPRP
- shrunken log2 fold change: 0.379

Sequence: RRIRARPPRLPRPRPRPKFNPRP
- shrunken log2 fold change: -0.129

Sequence: RRIRARPPRLPRPRPRPKGEPRP
- shrunken log2 fold change: 0.556

Sequence: RRIRARPPRLPRPRPRPKHIPRP
- shrunken log2 fold change: -0.219

Sequence: RRIRARPPRLPRPRPRPKHMPRP
- shrunken log2 fold change: -0.158

Sequence: RRIRARPPRLPRPRPRPKHVPRP
- shrunken log2 fold change: 0.0861

Sequence: RRIRARPPRLPRPRPRPKIAPRP
- shrunken log2 fold change: 0.177

Sequence: RRIRARPPRLPRPRPRPKKFPRP
- shrunken log2 fold change: 0.138

Sequence: RRIRARPPRLPRPRPRPKLFPRP
- shrunken log2 fold change: 0.233

Sequence: RRIRARPPRLPRPRPRPKMRPRP
- shrunken log2 fold change: 1.64

Sequence: RRIRARPPRLPRPRPRPKMSPRP
- shrunken log2 fold change: 0.126

Sequence: RRIRARPPRLPRPRPRPKPCPRP
- shrunken log2 fold change: 0.162

Sequence: RRIRARPPRLPRPRPRPKPMPRP
- shrunken log2 fold change: 0.831

Sequence: RRIRARPPRLPRPRPRPKPYPRP
- shrunken log2 fold change: 0.0727

Sequence: RRIRARPPRLPRPRPRPKQGPRP
- shrunken log2 fold change: 0.373

Sequence: RRIRARPPRLPRPRPRPKQQPRP
- shrunken log2 fold change: 0.569

Sequence: RRIRARPPRLPRPRPRPKRCPRP
- shrunken log2 fold change: 0.079

Sequence: RRIRARPPRLPRPRPRPKRFPRP
- shrunken log2 fold change: 0.249

Sequence: RRIRARPPRLPRPRPRPKRQPRP
- shrunken log2 fold change: 0.0749

Sequence: RRIRARPPRLPRPRPRPKRYPRP
- shrunken log2 fold change: 0.159

Sequence: RRIRARPPRLPRPRPRPKSVPRP
- shrunken log2 fold change: 0.0188

Sequence: RRIRARPPRLPRPRPRPKTAPRP
- shrunken log2 fold change: 0.0481

Sequence: RRIRARPPRLPRPRPRPKTGPRP
- shrunken log2 fold change: 0.427

Sequence: RRIRARPPRLPRPRPRPKTNPRP
- shrunken log2 fold change: 0.436

Sequence: RRIRARPPRLPRPRPRPKTQPRP
- shrunken log2 fold change: 0.0119

Sequence: RRIRARPPRLPRPRPRPKTRPRP
- shrunken log2 fold change: 0.689

Sequence: RRIRARPPRLPRPRPRPKWNPRP
- shrunken log2 fold change: 0.286

Sequence: RRIRARPPRLPRPRPRPLDHPRP
- shrunken log2 fold change: 0.267

Sequence: RRIRARPPRLPRPRPRPLDSPRP
- shrunken log2 fold change: 0.166

Sequence: RRIRARPPRLPRPRPRPLEKPRP
- shrunken log2 fold change: 0.439

Sequence: RRIRARPPRLPRPRPRPLFTPRP
- shrunken log2 fold change: 0.0936

Sequence: RRIRARPPRLPRPRPRPLFVPRP
- shrunken log2 fold change: 0.0919

Sequence: RRIRARPPRLPRPRPRPLGGPRP
- shrunken log2 fold change: 1.01

Sequence: RRIRARPPRLPRPRPRPLHEPRP
- shrunken log2 fold change: 0.314

Sequence: RRIRARPPRLPRPRPRPLHFPRP
- shrunken log2 fold change: 0.211

Sequence: RRIRARPPRLPRPRPRPLMVPRP
- shrunken log2 fold change: 0.0926

Sequence: RRIRARPPRLPRPRPRPLMYPRP
- shrunken log2 fold change: -0.165

Sequence: RRIRARPPRLPRPRPRPLNNPRP
- shrunken log2 fold change: -0.346

Sequence: RRIRARPPRLPRPRPRPLNVPRP
- shrunken log2 fold change: -0.234

Sequence: RRIRARPPRLPRPRPRPLNWPRP
- shrunken log2 fold change: 0.245

Sequence: RRIRARPPRLPRPRPRPLPEPRP
- shrunken log2 fold change: 0.542

Sequence: RRIRARPPRLPRPRPRPLPKPRP
- shrunken log2 fold change: 0.748

Sequence: RRIRARPPRLPRPRPRPLSNPRP
- shrunken log2 fold change: 0.25

Sequence: RRIRARPPRLPRPRPRPLSVPRP
- shrunken log2 fold change: -0.0782

Sequence: RRIRARPPRLPRPRPRPLVPPRP
- shrunken log2 fold change: 0.125

Sequence: RRIRARPPRLPRPRPRPLWWPRP
- shrunken log2 fold change: 0.648

Sequence: RRIRARPPRLPRPRPRPLYCPRP
- shrunken log2 fold change: 0.765

Sequence: RRIRARPPRLPRPRPRPMAKPRP
- shrunken log2 fold change: 0.216

Sequence: RRIRARPPRLPRPRPRPMFAPRP
- shrunken log2 fold change: 0.52

Sequence: RRIRARPPRLPRPRPRPMFFPRP
- shrunken log2 fold change: 0.0123

Sequence: RRIRARPPRLPRPRPRPMGDPRP
- shrunken log2 fold change: -0.0121

Sequence: RRIRARPPRLPRPRPRPMHCPRP
- shrunken log2 fold change: 0.0899

Sequence: RRIRARPPRLPRPRPRPMHQPRP
- shrunken log2 fold change: 0.0908

Sequence: RRIRARPPRLPRPRPRPMHRPRP
- shrunken log2 fold change: -0.137

Sequence: RRIRARPPRLPRPRPRPMKEPRP
- shrunken log2 fold change: -0.101

Sequence: RRIRARPPRLPRPRPRPMKHPRP
- shrunken log2 fold change: -0.00244

Sequence: RRIRARPPRLPRPRPRPMKVPRP
- shrunken log2 fold change: -0.0785

Sequence: RRIRARPPRLPRPRPRPMKYPRP
- shrunken log2 fold change: -0.157

Sequence: RRIRARPPRLPRPRPRPMLMPRP
- shrunken log2 fold change: 0.044

Sequence: RRIRARPPRLPRPRPRPMMDPRP
- shrunken log2 fold change: -0.203

Sequence: RRIRARPPRLPRPRPRPMNDPRP
- shrunken log2 fold change: 0.138

Sequence: RRIRARPPRLPRPRPRPMPSPRP
- shrunken log2 fold change: 0.341

Sequence: RRIRARPPRLPRPRPRPMSEPRP
- shrunken log2 fold change: 0.337

Sequence: RRIRARPPRLPRPRPRPMSRPRP
- shrunken log2 fold change: -0.171

Sequence: RRIRARPPRLPRPRPRPMSVPRP
- shrunken log2 fold change: 0.121

Sequence: RRIRARPPRLPRPRPRPMVHPRP
- shrunken log2 fold change: 0.0572

Sequence: RRIRARPPRLPRPRPRPMVIPRP
- shrunken log2 fold change: 0.0235

Sequence: RRIRARPPRLPRPRPRPMVSPRP
- shrunken log2 fold change: 0.124

Sequence: RRIRARPPRLPRPRPRPMYYPRP
- shrunken log2 fold change: -0.433

Sequence: RRIRARPPRLPRPRPRPNCNPRP
- shrunken log2 fold change: -0.116

Sequence: RRIRARPPRLPRPRPRPNCPPRP
- shrunken log2 fold change: -0.0021

Sequence: RRIRARPPRLPRPRPRPNEAPRP
- shrunken log2 fold change: 0.269

Sequence: RRIRARPPRLPRPRPRPNETPRP
- shrunken log2 fold change: 0.0696

Sequence: RRIRARPPRLPRPRPRPNFYPRP
- shrunken log2 fold change: 0.0801

Sequence: RRIRARPPRLPRPRPRPNGSPRP
- shrunken log2 fold change: 0.304

Sequence: RRIRARPPRLPRPRPRPNHKPRP
- shrunken log2 fold change: -0.351

Sequence: RRIRARPPRLPRPRPRPNHPPRP
- shrunken log2 fold change: -0.0147

Sequence: RRIRARPPRLPRPRPRPNIWPRP
- shrunken log2 fold change: 0.133

Sequence: RRIRARPPRLPRPRPRPNKIPRP
- shrunken log2 fold change: -0.136

Sequence: RRIRARPPRLPRPRPRPNKVPRP
- shrunken log2 fold change: -0.108

Sequence: RRIRARPPRLPRPRPRPNNAPRP
- shrunken log2 fold change: 0.00673

Sequence: RRIRARPPRLPRPRPRPNNHPRP
- shrunken log2 fold change: -0.381

Sequence: RRIRARPPRLPRPRPRPNPCPRP
- shrunken log2 fold change: 0.0698

Sequence: RRIRARPPRLPRPRPRPNRDPRP
- shrunken log2 fold change: -0.183

Sequence: RRIRARPPRLPRPRPRPNRKPRP
- shrunken log2 fold change: 0.131

Sequence: RRIRARPPRLPRPRPRPNSLPRP
- shrunken log2 fold change: -0.207

Sequence: RRIRARPPRLPRPRPRPNTIPRP
- shrunken log2 fold change: -0.0317

Sequence: RRIRARPPRLPRPRPRPNTKPRP
- shrunken log2 fold change: -0.124

Sequence: RRIRARPPRLPRPRPRPNVIPRP
- shrunken log2 fold change: -0.433

Sequence: RRIRARPPRLPRPRPRPNWNPRP
- shrunken log2 fold change: -0.0314

Sequence: RRIRARPPRLPRPRPRPNWRPRP
- shrunken log2 fold change: 0.883

Sequence: RRIRARPPRLPRPRPRPNYCPRP
- shrunken log2 fold change: -0.223

Sequence: RRIRARPPRLPRPRPRPNYDPRP
- shrunken log2 fold change: -0.36

Sequence: RRIRARPPRLPRPRPRPNYPPRP
- shrunken log2 fold change: -0.144

Sequence: RRIRARPPRLPRPRPRPNYWPRP
- shrunken log2 fold change: 0.0678

Sequence: RRIRARPPRLPRPRPRPPAAPRP
- shrunken log2 fold change: 1.12

Sequence: RRIRARPPRLPRPRPRPPAIPRP
- shrunken log2 fold change: 0.382

Sequence: RRIRARPPRLPRPRPRPPAKPRP
- shrunken log2 fold change: 1.12

Sequence: RRIRARPPRLPRPRPRPPAVPRP
- shrunken log2 fold change: 0.927

Sequence: RRIRARPPRLPRPRPRPPCIPRP
- shrunken log2 fold change: -0.111

Sequence: RRIRARPPRLPRPRPRPPCTPRP
- shrunken log2 fold change: 0.164

Sequence: RRIRARPPRLPRPRPRPPDGPRP
- shrunken log2 fold change: 1.3

Sequence: RRIRARPPRLPRPRPRPPDWPRP
- shrunken log2 fold change: 1.23

Sequence: RRIRARPPRLPRPRPRPPEYPRP
- shrunken log2 fold change: 0.386

Sequence: RRIRARPPRLPRPRPRPPGPPRP
- shrunken log2 fold change: 0.703

Sequence: RRIRARPPRLPRPRPRPPGSPRP
- shrunken log2 fold change: 0.759

Sequence: RRIRARPPRLPRPRPRPPHEPRP
- shrunken log2 fold change: 1.29

Sequence: RRIRARPPRLPRPRPRPPIFPRP
- shrunken log2 fold change: 0.25

Sequence: RRIRARPPRLPRPRPRPPKLPRP
- shrunken log2 fold change: 0.683

Sequence: RRIRARPPRLPRPRPRPPKYPRP
- shrunken log2 fold change: -0.109

Sequence: RRIRARPPRLPRPRPRPPLWPRP
- shrunken log2 fold change: 1.17

Sequence: RRIRARPPRLPRPRPRPPMYPRP
- shrunken log2 fold change: -0.147

Sequence: RRIRARPPRLPRPRPRPPNEPRP
- shrunken log2 fold change: 0.716

Sequence: RRIRARPPRLPRPRPRPPNSPRP
- shrunken log2 fold change: 0.136

Sequence: RRIRARPPRLPRPRPRPPQKPRP
- shrunken log2 fold change: 1.29

Sequence: RRIRARPPRLPRPRPRPPTKPRP
- shrunken log2 fold change: 0.486
